The text below walks through data of doi:10.1101/2024.01.03.573903v1.

Substrate in this data set: Nc1ncnc2c1ncn2[C@@H]1O[C@H](COP(=O)(O)OP(=O)(O)OP(=O)(O)O)[C@@H](O)[C@H]1O
In words: malachite green phosphate release NTPase assay. It is filed as biochemical, Zika virus. As to conditions: no curcumin, 1% DMSO, 80 nM enzyme, Tris pH 7.4, 25 °C.

B1: ZIKV NS3 helicase (Zika virus) (protein)
chain: PVECFEPSMLKKKQLTVLDLHPGAGKTRRVLPEIVREAIKKRLRTVILAPTRVVAAEMEEALRGLPVRYMTTAVNVTHSGTEIVDLMCHATFTSRLLQPIRVPNYNLNIMDEAHFTDPSSIAARGYISTRVEMGEAAAIFMTATPPGTRDAFPDSNSPIMDTEVEVPERAWSSGFDWVTDHSGKTVWFVPSVRNGNEIAACLTKAGKRVIQLSRKTFETEFQKTKNQEWDFVITTDISEMGANFKADRVIDSRRCLKPVILDGERVILAGPMPVTHASAAQRRGRIGRNPNKPGDEYMYGGGCAETDEGHAHWLEARMLLDNIYLQDGLIASLYRPEADKVAAIEGEFKLRTEQRKTFVELMKRGDLPVWLAYQVASAGITYTDRRWCFDGTTNNTIMEDSVPAEVWTKYGEKRVLKPRWMDARVCSDHAALKSFKEFAAGKR
Turning to B1, the Km (usually the concentration of substrate that gives half-maximal velocity) came to 336.3 ± 61.97 µM; the catalytic constant (kcat) (commonly the number of substrate molecules converted per active site and unit of time at saturation) was 1.025 ± 0.06 s⁻¹.
